Test results from patent publication US20130251724A1 (GlaxoSmithKline, published 2013).
Several values for one entry are separate records, joined by “and”; a condition that tells them apart may be missing. Identical values can stand only once. Like-named read-outs stand apart in the source and are kept apart here.

T1: Cynomolgus OSM (cynomolgus, UniProt A0A2K5VPC6 26-221)
T1 construct: also called Cyno OSM; cynomolgus macaque OSM
T1 sequence: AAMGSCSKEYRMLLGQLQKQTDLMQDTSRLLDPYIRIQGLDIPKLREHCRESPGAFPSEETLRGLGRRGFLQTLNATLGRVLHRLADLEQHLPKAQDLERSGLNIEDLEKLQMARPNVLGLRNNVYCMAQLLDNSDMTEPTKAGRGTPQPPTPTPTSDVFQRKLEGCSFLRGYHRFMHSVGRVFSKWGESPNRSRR

T2: Human OSM (human, UniProt P13725 26-221)
T2 construct: Recombinant human OSM; also called hOSM; human Oncostatin M
T2 sequence: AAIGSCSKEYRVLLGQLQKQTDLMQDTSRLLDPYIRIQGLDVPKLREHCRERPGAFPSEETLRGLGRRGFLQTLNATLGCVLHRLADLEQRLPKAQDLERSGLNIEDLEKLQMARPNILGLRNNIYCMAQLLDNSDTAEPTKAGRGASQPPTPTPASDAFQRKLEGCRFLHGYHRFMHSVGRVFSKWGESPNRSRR


Tests used:
[1] = target: T1, Cynomolgus OSM; assay: BIAcore kinetics, transfection supernatant
[2] = target: T2, Human OSM; assay: BIAcore kinetics, transfection supernatant
[3] = target: T1, Cynomolgus OSM; assay: cell-based or functional assay
[4] = target: T2, Human OSM; assay: cell-based or functional assay
[5] = target: T1, Cynomolgus OSM; assay: cell-based or functional assay; remark: listed apart in the source
[6] = target: T2, Human OSM; assay: cell-based or functional assay; remark: listed apart in the source
[7] = target: T1, Cynomolgus OSM; assay: BIAcore kinetics, purified antibody
[8] = target: T2, Human OSM; assay: BIAcore kinetics, purified antibody
[9] = target: T2, Human OSM; assay: BIAcore kinetics, transfection supernatant; remark: listed apart in the source
[10] = target: T2, Human OSM; assay: SPR (ProteOn XPR36 or Biacore T100), captured supernatant, OSM as analyte; hatched cell: separate experiment
Experimental: The initial kinetic analyses for the CDRH3 screen were carried out on the ProteOn XPR36 (Biorad Laboratories) and certain supernatants were selected for more accurate kinetic analysis on the BiaCore T100.
For the ProteOn analysis, anti-human IgG (GE Healthcare/Biacore BR-1008-39) was coupled to a GLM chip (Biorad Laboratories 176-5012) by primary amine coupling. The CDRH3 variants were captured directly on to this surface and recombinant human OSM was passed over the captured antibody surface at 256, 64, 16, 4 and 1 nM, with a buffer injection alone (i.e. 0 nM) used to double reference the binding curves. Following the OSM binding event, the capture surfaces were regenerated: with 3M MgCl₂ the regeneration removed the previously captured antibody ready for another cycle of capture and binding analysis. The data was then fitted to the 1:1 model (with mass transport) inherent to the ProteOn analysis software. The run was carried out using HBS-EP (Biacore/GE-Healthcare BR-1006-69) and the analysis temperature was 25° C.
A similar method was used for analysis of constructs using the Biacore T100, anti-human IgG (GE Healthcare/Biacore BR-1008-39) was coupled to a CM5 chip (GE Healthcare/Biacore BR-1006-68) by primary amine coupling, antibodies were captured on this surface and recombinant human OSM was passed over the captured antibody surface at 256, 64, 16, 4 and 1 nM, with a buffer injection alone (i.e. 0 nM) used to double reference the binding curves. Regeneration was by using pulses of 3M 3M MgCl₂ or 100 mM phosphoric acid or using both reagents. The data was fitted to the 1:1 model inherent to the Biacore T100 analysis software. The run was carried out using HBS-EP (Biacore/GE-Healthcare BR-1006-69) and the analysis temperature was 25° C.

| Binder | Kd [1] [pM] | koff [1] [s⁻¹] | kon [1] [M⁻¹ s⁻¹] | Kd [2] [pM] | koff [2] [s⁻¹] | kon [2] [M⁻¹ s⁻¹] | KB cell neutralisation assay, mean IC50 [3] | KB cell neutralisation assay, mean IC50 [4] | KB cell neutralisation assay, mean IC50 [5] | KB cell neutralisation assay, mean IC50 [6] | Kd [7] [pM] | koff [7] [s⁻¹] | kon [7] [M⁻¹ s⁻¹] | Kd [8] [pM] | koff [8] [s⁻¹] | kon [8] [M⁻¹ s⁻¹] | Kd [9] [pM] | koff [9] [s⁻¹] | kon [9] [M⁻¹ s⁻¹] | Kd [10] [pM] |
| --- | --- | --- | --- | --- | --- | --- | --- | --- | --- | --- | --- | --- | --- | --- | --- | --- | --- | --- | --- | --- |
| Humanised 10G8 H0(IGHV3-23)L1(IGK4-1) (antibody, V domains shown, built from the stated exchange of CDRL2; residue limits derived by me; also called H0 IGHV3_23 + L1 IGKV4_1; H0(huCDRH1)L1(huCDRL2)) VH: EVQLVESGGGLVQPGGSLRLSCAASGFTFSSYAMSWVRQAPGKGLEWVATISDGGSFTYYLDNVRGRFTISRDNAKNSLYLQMNSLRAEDTAVYYCARDVGHTTFWYFDVWGRGTLVTVSS VL: DIVMTQSPDSLAVSLGERATINCRASKSVSAAGYNFMHWYQQKPGQPPKVLIYWASTRESGVPDRFSGSGSGTDFTLTISSLQAEDVAVYYCLHSREFPFTFGGGTKVEIK | 1470 | 0.000223 | 152000 | 1560 | 0.000247 | 159000 | 0.114 µg/ml and 760 pM | 0.077 µg/ml and 513 pM | – | – | – | – | – | – | – | – | – | – | – | – |
| Humanised 10G8 H0L4 (antibody, V domains shown) VH: EVQLVESGGGLVQPGGSLRLSCAASGFTFSNYAMSWVRQAPGKGLEWVATISDGGSFTYYLDNVRGRFTISRDNAKNSLYLQMNSLRAEDTAVYYCARDVGHTTFWYFDVWGRGTLVTVSS VL: DIVMTQSPDSLAVSLGERATINCRASKSVSAAGYNFMHWYQQKPGQPPKVLIYYASNLESGVPDRFSGSGSGTDFTLTISSLQAEDVVVYYCLHSREFPFTFGGGTNVEIK | – | – | – | – | – | – | – | – | 0.012 µg/ml and 49 pM | 0.018 µg/ml and 118 pM | 242 | 0.000101 | 418000 | 374 | 0.00014 | 374000 | 268 | 0.000111 | 413000 | – |
| Humanised 10G8 H0L1(IGKV4-1) (antibody, V domains shown, built from the stated exchange of CDRL2; residue limits derived by me; Human gamma 1/kappa constant regions; also called H0L1(huCDRL2)) VH: EVQLVESGGGLVQPGGSLRLSCAASGFTFSNYAMSWVRQAPGKGLEWVATISDGGSFTYYLDNVRGRFTISRDNAKNSLYLQMNSLRAEDTAVYYCARDVGHTTFWYFDVWGRGTLVTVSS VL: DIVMTQSPDSLAVSLGERATINCRASKSVSAAGYNFMHWYQQKPGQPPKVLIYWASTRESGVPDRFSGSGSGTDFTLTISSLQAEDVAVYYCLHSREFPFTFGGGTKVEIK | 1410 | 0.000212 | 150000 | 1370 | 0.000221 | 161000 | 0.081 µg/ml and 540 pM | 0.054 µg/ml and 360 pM | – | – | – | – | – | – | – | – | – | – | – | – |

The remaining lines, values ahead:

| Kd [1] [pM] | koff [1] [s⁻¹] | kon [1] [M⁻¹ s⁻¹] | Kd [2] [pM] | koff [2] [s⁻¹] | kon [2] [M⁻¹ s⁻¹] | KB cell neutralisation assay, mean IC50 [3] | KB cell neutralisation assay, mean IC50 [4] | KB cell neutralisation assay, mean IC50 [5] | KB cell neutralisation assay, mean IC50 [6] | Kd [7] [pM] | koff [7] [s⁻¹] | kon [7] [M⁻¹ s⁻¹] | Kd [8] [pM] | koff [8] [s⁻¹] | kon [8] [M⁻¹ s⁻¹] | Kd [9] [pM] | koff [9] [s⁻¹] | kon [9] [M⁻¹ s⁻¹] | Kd [10] [pM] | Binder |
| --- | --- | --- | --- | --- | --- | --- | --- | --- | --- | --- | --- | --- | --- | --- | --- | --- | --- | --- | --- | --- |
| – | – | – | – | – | – | – | – | 0.013 µg/ml and 14 pM | 0.014 µg/ml and 93 pM | 299 | 0.000124 | 414000 | 365 | 0.00014 | 383000 | 286 | 0.000113 | 394000 | – | Humanised 10G8 H2L1 (antibody, V domains shown) VH: EVQLVESGGGLVQPGGSLRLSCAASGFTFSNYAMSWVRQAPGKGLEWVATISDGGSFTYYLDNVRGRFTISRDNAKNSLYLQMNSLRAEDTAVYYCARDVGHTTFWYFDVWGSGTLVTVSS VL: DIVMTQSPDSLAVSLGERATINCRASKSVSAAGYNFMHWYQQKPGQPPKVLIYYASNLESGVPDRFSGSGSGTDFTLTISSLQAEDVAVYYCLHSREFPFTFGGGTKVEIK |
| – | – | – | – | – | – | – | – | 0.016 µg/ml and 58 pM | 0.022 µg/ml and 147 pM | 205 | 9.01e-05 | 441000 | 356 | 0.000135 | 380000 | 226 | 0.000101 | 448000 | – | Humanised 10G8 H2L4 (antibody, V domains shown) VH: EVQLVESGGGLVQPGGSLRLSCAASGFTFSNYAMSWVRQAPGKGLEWVATISDGGSFTYYLDNVRGRFTISRDNAKNSLYLQMNSLRAEDTAVYYCARDVGHTTFWYFDVWGSGTLVTVSS VL: DIVMTQSPDSLAVSLGERATINCRASKSVSAAGYNFMHWYQQKPGQPPKVLIYYASNLESGVPDRFSGSGSGTDFTLTISSLQAEDVVVYYCLHSREFPFTFGGGTNVEIK |
| – | – | – | – | – | – | – | – | – | – | – | – | – | – | – | – | – | – | – | 36200 | Pos 100B His (antibody, V domains shown, also called CDRH3 W100B>H) VH: EVQLVESGGGLVQPGGSLRLSCAASGFTFSSYAMSWVRQAPGKGLEWVATISDGGSFTYYLDNVRGRFTISRDNAKNSLYLQMNSLRAEDTAVYYCARDVGHTTFHYFDVWGRGTLVTVSS VL: DIVMTQSPDSLAVSLGERATINCRASKSVSAAGYNFMHWYQQKPGQPPKVLIYYASNLESGVPDRFSGSGSGTDFTLTISSLQAEDVAVYYCLHSREFPFTFGGGTKVEIKR |
